Source: article PMC6312279, “Characterization of a protozoan Phosducin-like protein-3 (PhLP-3) reveals conserved redox activity” (PLoS ONE, 2018)
Values belong to the molecule of their own block, whether it stands above or below them.

Key:
[1] = molecular target: T1, HsPhLP-3 (Homo sapiens, UniProt O14530); experiment: thioredoxin-coupled NADPH oxidation assay, […] nm; format: biochemical; settings: thioredoxin system/NADPH as reductant, millimolar TBHP needed; data not shown separately
T1 construct: gene TXNDC9
T1 sequence (O14530 1-226): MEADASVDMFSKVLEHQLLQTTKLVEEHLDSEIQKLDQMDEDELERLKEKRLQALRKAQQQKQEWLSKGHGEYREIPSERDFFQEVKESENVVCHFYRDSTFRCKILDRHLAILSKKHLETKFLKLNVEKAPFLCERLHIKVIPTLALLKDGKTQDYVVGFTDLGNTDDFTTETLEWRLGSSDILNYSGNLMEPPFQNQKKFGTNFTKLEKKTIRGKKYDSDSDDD

[2] = molecular target: T2, PbPhLP-3 (Plasmodium berghei, UniProt A0A509AN16); experiment: thioredoxin-coupled NADPH oxidation assay, […] nm; format: biochemical; settings: PbTrxR/PbTrx-1/NADPH as reductant, pH 7.4, 25 °C; linear, non-saturating up to millimolar TBHP, authors suggest non-enzymatic mechanism
T2 construct: gene PBANKA_1204800
T2 sequence (A0A509AN16 1-193): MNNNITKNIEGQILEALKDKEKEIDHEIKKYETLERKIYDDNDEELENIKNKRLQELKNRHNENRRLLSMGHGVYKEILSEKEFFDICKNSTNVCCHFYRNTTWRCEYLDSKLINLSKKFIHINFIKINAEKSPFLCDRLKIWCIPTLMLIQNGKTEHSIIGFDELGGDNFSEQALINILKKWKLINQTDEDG

[3] = molecular target: Plasmodium berghei Phosducin-like protein-3 (PbPhLP-3) (Plasmodium berghei)
[4] = molecular target: T3, human PhLP-3 (HsPhLP-3; thioredoxin-domain containing protein 9, TXNDC9) (human) (UniProt O14530)
T3 sequence: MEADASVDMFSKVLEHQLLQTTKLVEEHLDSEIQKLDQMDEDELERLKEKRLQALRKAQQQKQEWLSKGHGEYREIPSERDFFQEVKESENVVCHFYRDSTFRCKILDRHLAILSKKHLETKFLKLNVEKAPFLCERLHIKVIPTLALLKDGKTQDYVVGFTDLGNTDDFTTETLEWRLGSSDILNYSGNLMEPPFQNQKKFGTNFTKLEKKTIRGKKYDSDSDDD

Molecule: CC(C)(C)OO [TBHP]
thioredoxin-coupled NADPH oxidation assay, 340 nm [1]: both PhLP-3 proteins investigated here reduce the oxidative compound TBHP
thioredoxin-coupled NADPH oxidation assay, 340 nm [2]: reduction of the compound was observed in the presence of PbPhLP-3

KM for PbTrx-1 in the Trx-reduction assay (initial velocities of NADPH oxidation at PbTrx-1 0.5–50 μM) [3]: 5.82 µM
Vmax in the Trx-reduction assay (initial velocities of NADPH oxidation at PbTrx-1 0.5–50 μM) [3]: 10.1 µM/min
kcat in the Trx-reduction assay (initial velocities of NADPH oxidation at PbTrx-1 0.5–50 μM) [3]: 0.0167 s⁻¹
kcat/KM (rate constant) in the Trx-reduction assay [3]: 2830 M⁻¹ s⁻¹
Molecule: Plasmodium berghei thioredoxin-1 (PbTrx-1) (natural protein)

KM in the Trx-reduction assay with PbTrxR, HsTrx-1 and HsPhLP-3 [4]: 6.53 µM
Vmax in the Trx-reduction assay with PbTrxR, HsTrx-1 and HsPhLP-3 [4]: 12.6 µM/min
kcat in the Trx-reduction assay with PbTrxR, HsTrx-1 and HsPhLP-3 [4]: 0.021 s⁻¹
kcat/KM (rate constant) in the Trx-reduction assay with PbTrxR, HsTrx-1 and HsPhLP-3 [4]: 3170 M⁻¹ s⁻¹
B1: human Trx-1 (HsTrx-1) (natural protein)
chain: MVKQIESKTAFQEALDAAGDKLVVVDFSATWCGPCKMIKPFFHSLSEKYSNVIFLEVDVDDCQDVASECEVKCMPTFQFFKKGQKVGEFSGANKEKLEATINELV
